Key:
Assay in all cases: IEDB peptide-MHC binding, purified MHC/competitive/radioactivity; filed as Kd, often an IC50 or EC50 that approximates it; ≥ and ≤ were set here for values at or beyond the usual limits of such assays
[1] = target: HLA-A*68:01
[2] = target: HLA-A*11:01
[3] = target: HLA-A*33:01
[4] = target: HLA-A*03:01
[5] = target: HLA-A*31:01
[6] = target: HLA-A*02:03; settings: source organism: Vaccinia virus WR
[7] = target: HLA-A*02:06; settings: source organism: Vaccinia virus WR
[8] = target: HLA-A*02:02; settings: source organism: Vaccinia virus WR
[9] = source organism: Vaccinia virus WR
[10] = source organism: SARS coronavirus Tor2
[11] = source organism: Vaccinia virus Copenhagen
[12] = source organism: Dengue virus 2 Jamaica/1409/1983
[13] = source organism: Mammarenavirus juninense

Row | Sequence | Kd [1, 9] [nM] | Kd [2, 9] [nM] | Kd [3, 9] [nM] | Kd [4, 9] [nM] | Kd [5, 9] [nM] | also measured
1 | QTIASKKDK | 265 | 766 | ≥ 77700 | 317 | 589 | 
2 | QTLISLNSM |  |  |  |  |  | Kd [6]: ≥ 39300 nM; Kd [7]: 7510 nM; Kd [8]: 19400 nM
3 | RAAIDRQVSV |  |  |  |  |  | Kd [6]: 40.8 nM; Kd [7]: 212 nM; Kd [8]: 626 nM
4 | RMLDTSEKY | ≥ 77700 | 9870 | ≥ 68100 | 4980 | ≥ 66200 | 
5 | RSLQTIASK | 187 | 7.32 | ≥ 77700 | 1.5 | 4.3 | 
6 | RSLQTIASKK | 1170 | 22.5 | ≥ 70000 | 50.3 | 183 | 
7 | RVTKRDESSI |  |  |  |  |  | Kd [6]: 10700 nM; Kd [7]: ≥ 22200 nM; Kd [8]: 12300 nM
8 | RVTTELNIV |  |  |  |  |  | Kd [6]: 116 nM; Kd [7]: 45.7 nM; Kd [8]: 2460 nM
9 | SADASTFLK |  |  |  |  |  | Kd [1, 10]: 12 nM; Kd [2, 10]: 2.97 nM; Kd [3, 10]: 2570 nM; Kd [4, 10]: 16.4 nM; Kd [5, 10]: 99.8 nM
10 | SAGFSLWIY |  |  |  |  |  | Kd [1, 10]: 4040 nM; Kd [2, 10]: 116 nM; Kd [3, 10]: 17300 nM; Kd [4, 10]: 572 nM; Kd [5, 10]: 393 nM
11 | SINVTIPEQY | 5200 | 783 | 12800 | 19100 | 8190 | 
12 | SIRCVKYLL |  |  |  |  |  | Kd [6]: 55.7 nM; Kd [7]: 2880 nM; Kd [8]: 107 nM
13 | SISSVLTILY | 907 | 107 | 2240 | 206 | 9230 | 
14 | SLELIIIHTK | 8050 | 1300 | ≥ 53400 | 16200 | 130 | 
15 | SLGKSPLPSL |  |  |  |  |  | Kd [6]: 46.8 nM; Kd [7]: 1430 nM; Kd [8]: 4.07 nM
16 | SLKRFTHTTA |  |  |  |  |  | Kd [6]: 726 nM; Kd [7]: 7320 nM; Kd [8]: 884 nM
17 | SLLSLREVK |  |  |  |  |  | Kd [1, 10]: 1190 nM; Kd [2, 10]: 21.2 nM; Kd [3, 10]: 8140 nM; Kd [4, 10]: 249 nM; Kd [5, 10]: 187 nM
18 | SLNRQTVSR | 818 | 1350 | 286 | 67.1 | 7.2 | 

Row | Sequence | Kd [1, 9] [nM] | Kd [2, 9] [nM] | Kd [3, 9] [nM] | Kd [4, 9] [nM] | Kd [5, 9] [nM] | also measured
19 | SMFWDGMDY | 11.9 | 0.823 | 10400 | 1.02 | 124 | 
20 | SMTSDSKSI |  |  |  |  |  | Kd [6]: 2300 nM; Kd [7]: ≥ 55800 nM; Kd [8]: 8350 nM
21 | STSAFIDTIK |  |  |  |  |  | Kd [1, 10]: 25.9 nM; Kd [2, 10]: 15.6 nM; Kd [3, 10]: ≥ 47100 nM; Kd [4, 10]: 1090 nM; Kd [5, 10]: 8800 nM
22 | STSPTRTWK |  |  |  |  |  | Kd [1, 11]: 5.87 nM; Kd [2, 11]: 0.803 nM; Kd [3, 11]: 6520 nM; Kd [4, 11]: 6.72 nM; Kd [5, 11]: 36.2 nM
23 | TLVPQEHYVR |  |  |  |  |  | Kd [1, 10]: 445 nM; Kd [2, 10]: 436 nM; Kd [3, 10]: 1910 nM; Kd [4, 10]: 130 nM; Kd [5, 10]: 989 nM
24 | TMLFTMLRK |  |  |  |  |  | Kd [1, 10]: 1580 nM; Kd [2, 10]: 20 nM; Kd [3, 10]: 13200 nM; Kd [4, 10]: 7.41 nM; Kd [5, 10]: 901 nM
25 | TSDSKSIENK | 369 | 534 | ≥ 34200 | 10400 | 14400 | 
26 | TSPGEIKPK | 4810 | 1040 | ≥ 77700 | ≥ 61800 | ≥ 22500 | 
27 | TTFVTPMLR |  |  |  |  |  | Kd [1, 12]: 3.77 nM; Kd [2, 12]: 79.2 nM; Kd [3, 12]: 5.67 nM; Kd [4, 12]: 102 nM; Kd [5, 12]: 16.5 nM
28 | VMHINSPFK | 79.3 | 0.224 | 10700 | 1.8 | 19.9 | 
29 | VQIDRLITGR |  |  |  |  |  | Kd [1, 10]: 1030 nM; Kd [2, 10]: 3020 nM; Kd [3, 10]: 912 nM; Kd [4, 10]: 1990 nM; Kd [5, 10]: 43.6 nM
30 | VTDLENRLK | 7250 | 25.9 | 13100 | 2250 | 13600 | 
31 | WVFGSTMNNK |  |  |  |  |  | Kd [1, 10]: 3.24 nM; Kd [2, 10]: 208 nM; Kd [3, 10]: ≥ 70000 nM; Kd [4, 10]: 197 nM; Kd [5, 10]: 5950 nM
32 | YALINLVQY | ≥ 51800 | ≥ 77900 | ≥ 77700 | ≥ 78000 | ≥ 20500 | 
33 | YFSKQTQTY | 1730 | ≥ 27500 | ≥ 30400 | 17300 | ≥ 25000 | 
34 | YQSFLFWFLK | 8.31 | 0.706 | 3990 | 20.6 | 18.4 | 
35 | YTKFWYVNH |  |  |  |  |  | Kd [1, 13]: 6510 nM; Kd [2, 13]: 17800 nM; Kd [3, 13]: 28.2 nM; Kd [4, 13]: 10300 nM; Kd [5, 13]: 604 nM
